Earlier results on one substance are cited in article PMC8141935.

The data set deals with GABAA receptor α3 subunit intracellular loop (UniProt P34903).
GABAA receptor α3 subunit intracellular loop, sequence (P34903 361-457): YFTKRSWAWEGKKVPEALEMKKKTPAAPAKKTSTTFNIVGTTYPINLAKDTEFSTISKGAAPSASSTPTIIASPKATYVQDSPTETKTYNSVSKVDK

gephyrin, sequence (Q9NQX3 whole entry): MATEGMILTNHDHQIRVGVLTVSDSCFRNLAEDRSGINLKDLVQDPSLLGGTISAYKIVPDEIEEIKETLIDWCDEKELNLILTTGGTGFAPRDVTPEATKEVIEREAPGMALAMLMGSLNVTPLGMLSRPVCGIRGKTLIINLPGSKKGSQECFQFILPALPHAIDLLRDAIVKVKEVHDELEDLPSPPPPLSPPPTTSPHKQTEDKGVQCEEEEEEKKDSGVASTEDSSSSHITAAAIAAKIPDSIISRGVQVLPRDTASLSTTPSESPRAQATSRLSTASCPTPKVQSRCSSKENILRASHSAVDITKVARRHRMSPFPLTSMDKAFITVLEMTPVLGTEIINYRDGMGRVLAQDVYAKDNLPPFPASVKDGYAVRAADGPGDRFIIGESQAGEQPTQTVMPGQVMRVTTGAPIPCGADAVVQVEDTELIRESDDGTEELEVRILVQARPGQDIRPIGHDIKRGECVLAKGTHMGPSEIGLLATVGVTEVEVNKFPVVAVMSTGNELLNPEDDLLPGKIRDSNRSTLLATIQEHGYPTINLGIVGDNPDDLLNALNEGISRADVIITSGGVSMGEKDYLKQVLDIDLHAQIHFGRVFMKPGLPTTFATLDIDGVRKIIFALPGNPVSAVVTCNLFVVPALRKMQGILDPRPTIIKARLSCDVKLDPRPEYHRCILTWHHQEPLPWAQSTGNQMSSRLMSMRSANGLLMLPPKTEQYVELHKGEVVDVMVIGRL

In the case of gephyrin (from UniProt Q9NQX3), the Kd was 5.3 µM.
